Measured values published in patent US20240083986A1.

Biological target: Hazel (Cor A 1, MyBiosource, Cat #MBS5304600) (Hazel) (UniProt Q08407)
Experiment: SPR, mAb captured via anti-hFc, 25 C

Binder	100 nM Analyte Bound (RU)
H4H16946P (antibody, human IgG4, V domains shown) VH: EVQLVESGGGLVQPGGSLRLSCVASGFTFSNYDMNWVRQAPGEGLEWISYISYSDHNIYYIDSVKGRFTISRDNAKNSLYLQMNSLRAEDTAIYYCAREALASSSFDYWGQGTLVTVSS VL: EIVMTQSPATLSVSPGERVTLSCRASQSVSGNLAWYQQKPGQAPRLLIYSASTGATGVPARFSGSGSGTEFTLTISSLQSEDFALYYCQQYNKWPRTIGQGTKVEIK	-1 RU
H4H16991P (antibody, human IgG4, V domains shown) VH: QVQLVQSGAEVRKPGASVKVSCKASGYTFTGYYLHWVRQAPGQGLEWMGLINPNTGGTNFAQKFQGRVTMTRDSSISAAYMELSRLRSDDTAVYYCARQHWNRYFDNWGQGTLVTVSS VL: DIQMTQSPSTLSASVGDRVTITCRASQSVGNWLAWYQQKPGKAPKLLIQEASSIESGVPSRFSGSGSGTEFTLIVSSLQPDDFATYYCQQYNSYSWTFGHGTKVEIK	0 RU
H4H17028P (antibody, human IgG4, V domains shown) VH: QVQLVESGGGVVQPGRSLRLSCAASGFTFSRYAIHWVRQAPGKGLEWVAVISYDGDDKYYGDSVKGRFTISRDNSKTMVYLHMNSLRTEDTAVYYCAKDGYSLYGKDYFDYWGQGTLVTVSS VL: EIVLTQSPGTLPLSPGERATLSCRASQSITNSYLAWYQQKPDQAPRLLIYGASSRATGIPDRFSGSESGTDFTLTISRLEPEDFAVYYCQQYVRSPWTFGQGTKVEIK	0 RU
H4H16950P (antibody, human IgG4, V domains shown) VH: QVQLVQSGAEVKKPGASVKVSCKTSGYTFTNYGITWVRQAPGQGLEWMGWISAYNGNTNYAQNVQGRVTMTTDTSTSTAYMEVRSLRSDDTAVYYCARRSSMLHFQHWGQGTLVTVSS VL: DIVMTQSPDSLAVSLGERATINCKSSQHVLYDSSNENYLAWFQQKPGQPPKLLIYWASTRESGVPDRFSGSGSGTDFTLTISSLQAEDVAVYYCQQYSSAPYTFGQGTKLEIK	0 RU
H4H17033P (antibody, human IgG4, V domains shown) VH: QVQLVQSGAEVKKPGASVKVSCKASGYTFAAHYMHWVRQAPGQGLEWMGWINTYTGGTNYGQKFQGRVTMTRDTSITTAYMELSRLRSDDTAVYYCARDRRNWNFVFEYWGQGTLVTVSS VL: DIQMTQSPSSLSASVGDRVTISCRASQNIKNYLNWYQQKPGKAPKLLIYEASNLQSGAPSRFSGSGSGTDFTLTISSLEPEDFATYYCQQSFSIPWTFGQGTKVEIK	0 RU
H4H17027P (antibody, human IgG4, V domains shown) VH: EVQLVESGGGLVQPGGSLRLSCAASGFTFRNYAMHWVRQAPGEGLEWVAAIYRNSDSIDYADSVKGRFTISRDNAKNSLYLQMNSLKTEDTALYYCAKDEGFLEYFDSWGQGTLVTVSS VL: EIVLTQSPGTLSLSPGERASLSCRASQSVSSSFLAWYQQKPGQAPRLLIYGVSSRFIGIPDRFSGGGSGTDFTLTITRLEPEDFAVYYCQQYGRSPWTFGQGTKVEIK	0 RU
H4H17015P (antibody, human IgG4, V domains shown) VH: QVQLQESGPGLVKPSQTLSLTCTVSGGSISSADHYWSWIRQQPGKGLEWIGYISYRGTTYYNPTLESRVSISVDTFKNQFSLMLHSVTVADTAVYYCAKVLQGLVRFRDYGFDVWGQGTTVTVSS VL: DIQLTQSPPFLSASVGDRVTITCWASQDISSYLAWYQQNPGKSPKLLIYDAFTLHTGVPSRFSGSGSGTEFTLTISSLQPEDFATFYCQHLYSFPFTFGPGTKVDIK	1 RU
H4H16960P (antibody, human IgG4, V domains shown) VH: QLQLQESGPGLVRPSETLSLTCTVSGGSISSSNYWWGWIRQPPGKGLEWIGSIYYSGITYYNPSLKSRVTISADTSKDQFSLKLRSVTAADTAVYYCAKLEWLRLDFWGQGTTVTVSS VL: DIQMTQSPSSVSASVGDRVTITCRASQGISSWLVWYQQKPGKVPKLLIYAASSLQSGVPLRFSGSGSGTDFTLTISSLQPEDFATYYCQQAKSFPLTFGQGTRLEIK	0 RU
H4H17001P (antibody, human IgG4, V domains shown) VH: QVQLVESGGGLVKPGGSLRLSCAASGFTFSDYYMNWIRQAPGKGLEWISLISSSGSAIYYSDSVKGRFTISRDNARKSLYLQVNSLRAEDTAVYYCARDRGEWALGAYYYGLDVWGQGTTVTVSS VL: DIVMTQSPLSLPVTPGEPASISCRSSQSLLHSDGYNYLDWYLQKSGQSPQLLIYLGSNRASGVPDRFSGSGSGTDFTLKISRMEAEDVGVYYCMQALQTPYTFGQGTKLEIK	0 RU
H4H17031P (antibody, human IgG4, V domains shown) VH: QVQLQQWGAGLLKPSETLSLTCVVYGESFGNYHWNWIRQSPGKRLEWIGEINQNGHTNYNPSLKSRVTISVDTSKIQFSLRLNSVTAADTAVYFCARGHNYVNSYFGLDVWGQGTTVTVSS VL: EIVMTQSPATLSVSPGERATLSCRTSQSVSISLAWYQRKPGQAPRLLIFGSSTRATGVPARFSGSGSGTEFTLTISSLQSEDFAVYYCQQYNNWPYTFGQGTKLEIK	0 RU
H4H16987P (antibody, human IgG4 S228P, kappa, V domains shown) VH: EVQLVESGGGLVQPGGSLRLSCAASGFTVSSNSMSWVRQAPGEGLEWVSVIFSGGITYYSDSVKGRFTISRHNSKNTLYLQMNSLRTEDTAVYYCARHSNWNFDAFDIWGQGTMVTVSS VL: DIQMTQSPSSLSASVGDRVTITCRASQSFDTYLNWYQQKPGKAPNLLIYATSSLQSGVPSRFSGSGSGTDFTLTISSLQPEDFGTYYCQQSYSIPYTFGQGTKLEIKR	0 RU
